Tests used:
[1] = molecular target: T1, YC-CBF1 (CBF1 fused to the C-terminal fragment of YFP) (Arabidopsis thaliana, UniProt P93835 1-213); assay: BiFC in Nicotiana benthamiana leaves at 4 °C (FIG. 6D)
T1 construct: BiFC construct expressed in Nicotiana benthamiana leaves; also called YC-CBFs; not shown: C-terminal fragment of YFP (YC)
Description: Interaction between Trx-h2 and CBFs under specific conditions was analyzed using the BiFC assay. Trx-h2 and CBFs were cloned individually into the gateway BiFC-binary vector, pDONR221, to generate pDONR221: Trx-h2 and pDONR221: CBF plasmids, respectively. The Trx-h2-YN plasmid was generated by fusing Trx-h2 with the N-terminal fragment of YFP (YN), while the YC-CBF plasmids were constructed by fusing each of the three CBFs with the C-terminal fragment of YFP (YC). These plasmids were introduced into A. tumefaciens strain GV3101, and the transformed cells were used to infiltrate the leaves of 4-week-old N. benthamiana plants. These plants were incubated at 26° C. for 2 days and then exposed to 4° C. for 6 h. Fluorescence signals generated by YFP were analyzed under a confocal microscope using the FV10-ASW 3.1 software.

[2] = molecular target: T2, CBF1-Myc (from CBF1-Myc^OE Arabidopsis plants) (Arabidopsis thaliana, UniProt P93835 1-213); assay: anti-Myc immunoprecipitation from CBF1-Myc^OE plants (4 °C, 6 h), then MALDI-TOF/TOF mass spectrometry
T2 construct: Overexpressed in Arabidopsis under the CaMV 35S promoter; The tag is placed C-terminal because of the name CBF1-Myc; also called CBF-Myc; CBFs-Myc; not shown: Myc tag
Description: To identify the interacting partners of CBF1 in Arabidopsis, total proteins (100 mg) were extracted from 2-week-old CBF1-Myc^OE seedlings exposed to 4° C. for 6 h, and immunoprecipitated using an anti-Myc agarose (Sigma-Aldrich, St. Louis, MO, USA). The CBF1-My c-interacting proteins were washed three times at 4° C. with a buffer containing 50 mM Tris-HCl (pH 7.5), 150 mM NaCl, 1 mM EDTA, 1 mM DTT, and 0.1% NP40. The purified proteins were mixed with SDS-PAGE loading dye, heated at 90° C. for 5 min, and separated by SDS-PAGE. Proteins were identified by matrix assisted laser desorption/ionization-time of flight (MALDI-TOF)/TOF-mass spectrometry.

T1 sequence (P93835 whole entry, the tested form may be a part): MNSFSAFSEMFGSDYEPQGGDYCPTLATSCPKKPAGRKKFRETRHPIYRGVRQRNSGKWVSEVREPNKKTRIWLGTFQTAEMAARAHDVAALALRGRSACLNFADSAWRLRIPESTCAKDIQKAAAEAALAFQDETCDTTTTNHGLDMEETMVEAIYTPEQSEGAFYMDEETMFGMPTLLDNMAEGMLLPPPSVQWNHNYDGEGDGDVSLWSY
T2 sequence (P93835 whole entry): as the sequence (P93835 whole entry, the tested form may be a part) above

Row | binding result [1] | binding result [2] | Binder
1 | no binding | – | Trx-h3 (control) in the BiFC assay (enzyme, Arabidopsis, UniProt Q42403 2-118, looked up, BiFC control; The YFP fragment fused to it is not described) AAEGEVIACHTVEDWTEKLKAANESKKLIVIDFTATWCPPCRFIAPVFADLAKKHLDVVFFKVDVDELNTVAEEFKVQAMPTFIFMKEGEIKETVVGAAKEEIIANLEKHKTVVAAA
2 | – | binds | Trx-h2, endogenous protein in Arabidopsis plants (enzyme, myristoylated at Gly2 at 22 °C; demyristoylated at 4 °C, Native Trx-h2 that co-precipitated with CBF-Myc from plant extracts (IP/mass spectrometry and Co-IP); also called thioredoxin h2) GGALSTVFGSGEDATAAGTESEPSRVLKFSSSARWQLHFNEIKESNKLLVVDFSASWCGPCRMIEPAIHAMADKFNDVDFVKLDVDELPDVAKEFNVTAMPTFVLVKRGKEIERIIGAKKDELEKKVSKLRA
